From publication PMC10418624, “Expression and Characterization of Two α-L-Arabinofuranosidases from Talaromyces amestolkiae: Role of These Enzymes in Biomass Valorization” (International Journal of Molecular Sciences, 2023)

How the values were obtained:
[1] = system: T1, O=[N+]([O-])c1ccc(O[C@@H]2O[C@@H](CO)[C@H](O)[C@H]2O)cc1; test: purified protein; format: biochemical, Talaromyces amestolkiae; conditions: standard reaction: 50 mM sodium acetate pH 5, 50 °C, 0.1% BSA, substrate 0.0625-16 mM
T1 construct: mature form without 18-residue signal peptide (54 bp), gene 1223 bp with one intron, 368 residues, 39 kDa, N-terminal CBM1, Ser/Thr-rich linker and GH62 domain; secreted from Pichia pastoris GS115 (pPIC9), N-glycosylated, about 50 kDa on SDS-PAGE; forward primer encodes QASLYGQ after the EcoRI site, reverse primer encodes C-terminal LLTLSK

[2] = system: T2, O=[N+]([O-])c1ccc(O[C@@H]2O[C@@H](CO)[C@H](O)[C@H]2O)cc1; test: purified protein; format: biochemical, Talaromyces amestolkiae; conditions: standard reaction: 50 mM sodium acetate pH 5, 50 °C, 0.1% BSA, substrate 0.0625-16 mM
T2 construct: secreted from Pichia pastoris GS115 (pPIC9), N-glycosylated, about 37 kDa on SDS-PAGE; forward primer encodes LPTDETA after the EcoRI site, reverse primer encodes C-terminal PGLLTHK

Chain of ARA-2 (Talaromyces amestolkiae) (chain, as listed by the source): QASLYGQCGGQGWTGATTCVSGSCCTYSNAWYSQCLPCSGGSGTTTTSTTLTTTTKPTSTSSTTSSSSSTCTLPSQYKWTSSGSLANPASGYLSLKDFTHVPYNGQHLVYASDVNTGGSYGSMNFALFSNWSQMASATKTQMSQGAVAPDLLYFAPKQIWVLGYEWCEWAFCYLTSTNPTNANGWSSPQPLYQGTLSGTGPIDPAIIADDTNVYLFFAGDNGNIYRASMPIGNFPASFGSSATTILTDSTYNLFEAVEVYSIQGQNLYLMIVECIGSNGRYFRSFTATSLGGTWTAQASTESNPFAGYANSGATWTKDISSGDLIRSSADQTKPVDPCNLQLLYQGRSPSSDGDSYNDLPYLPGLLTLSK
Chain of ARA-1 (Talaromyces amestolkiae) (chain, as listed by the source): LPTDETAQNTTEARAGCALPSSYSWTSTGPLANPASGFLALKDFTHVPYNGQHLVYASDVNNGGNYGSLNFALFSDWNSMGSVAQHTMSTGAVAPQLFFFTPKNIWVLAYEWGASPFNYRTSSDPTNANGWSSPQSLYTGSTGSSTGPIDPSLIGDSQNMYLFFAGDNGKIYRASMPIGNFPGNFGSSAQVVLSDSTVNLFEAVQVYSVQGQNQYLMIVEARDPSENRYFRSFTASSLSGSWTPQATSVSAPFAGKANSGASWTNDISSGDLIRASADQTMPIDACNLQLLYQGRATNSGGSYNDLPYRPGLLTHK

Substance	Km [1] [mM]	kcat [1] [s⁻¹]	kcat/Km [1] [M⁻¹ s⁻¹]	Km [2] [mM]	kcat [2] [s⁻¹]	kcat/Km [2] [M⁻¹ s⁻¹]
ARA-2 (Talaromyces amestolkiae)	1.48 ± 0.08	0.41 ± 0.01	280 ± 10	–	–	–
ARA-1 (Talaromyces amestolkiae)	–	–	–	8.97 ± 0.06	0.05 ± 0.001	5 ± 0.4
